In US20250163410:

Test system: VchCAST TnsB transposase (Tn6677; assayed with TnsA-TnsC and TniQ-Cascade) (Vibrio cholerae)
Assay: cell_activity
Conditions: for binding signal: no IPTG

Sequence | binding signal (T-RL) [fold vs WT] | also measured
ACATTTGTTGATACAACCATAAAATCATAATTACACCCATAAATTGATAATTATCACACCCATAAATTGATATTGCCTCTGATCATAGTCAGACCAACATTGCTACGACCCGTATTCGCACCGACAC (double strand) [Right end variant 1010] | – | binding signal (log2 fold vs WT) (T-RL, second replicate -1.5090): -1.91
ACATTTGTTGATACAACCATAAAATGATAATAACACCCATAAATTGATAATTATCACACCCATAAATTGATATTGCCTCTGATCATAGTCAGACCAACATTGCTACGACCCGTATTCGCACCGACAC (double strand) [Right end variant 990] | – | binding signal (log2 fold vs WT) (T-RL, second replicate 1.0127): 0.854
ACATTTGTTGATACAACCATAAAATGATAATTACACCCATAAATTGATAATTATCACACCCATAAATTGATATTGCCTCTCAGACCACATAGCTGCCATGTCCTGATCGGACGGACCGCACCGACAC (double strand) [Right end hyperactive 2701] | 1.7 | –
ACATTTGTTGATACAACCATAAAATGATAATTACACCCATAAATTGATAATTATCACACCCATAAATTGATATTGCCTCTCCGACCCGGAAGAGGGCGCCTAGAATTGGGAGTGGTCGCACCGACAC (double strand) [Right end hyperactive 2700] | 1.72 | –
ACATTTGTTGATACAACCATAAAATGATAATTACACCCATAAATTGATAATTATCACACCCATAAATTGATATTGCCTCTCGCGAGAGGCCGGCAGCCGTCTGGCGTCGGGTGGCGGGCACCGACAC (double strand) [Right end hyperactive 2697] | 2.03 | –
ACATTTGTTGATACAACCATAAAATGATAATTACACCCATAAATTGATAATTATCACACCCATAAATTGATATTGCCTCTGATCAAATTGTGAGCGGATAACAATTTAGTCAGACCAGCACCGACAC (double strand) [Right end hyperactive 2695] | 1.82 | –
ACATTTGTTGATACAACCATAAAATGATAATTACACCCATAAATTGATAATTATCACACCCATAAATTGATATTGCCTCTGATCAGGAATTGTGAGCGGATAACAATTTAGTCAGACGCACCGACAC (double strand) [Right end hyperactive 2693] | 2.05 | –
ACATTTGTTGATACAACCATAAAATGATAATTACACCCATAAATTGATAATTATCACACCCATAAATTGATATTGCCTCTGATCATAAATATATAAATTAATTATTAAATTAGTCAGGCACCGACAC (double strand) [Right end hyperactive 2692] | 2.24 | –
ACATTTGTTGATACAACCATAAAATGATAATTACACCCATAAATTGATAATTATCACACCCATAAATTGATATTGCCTCTGATCATAATTGTTATCCGCTCACAATTCCAGTCAGACGCACCGACAC (double strand) [Right end hyperactive 2694] | 1.89 | –
ACATTTGTTGATACAACCATAAAATGATAATTACACCCATAAATTGATAATTATCACACCCATAAATTGATATTGCCTCTGATCATATTTAATAATTAATTTATATATTTAAGTCAGGCACCGACAC (double strand) [Right end hyperactive 2691] | 2.63 | –
ACATTTGTTGATACAACCATAAAATGATAATTACACCCATAAATTGATAATTATCACACCCATAAATTGATATTGCCTCTGGCGCTCTGTACCCCGCTCGGTCCTCCCGCGCATCGCGCACCGACAC (double strand) [Right end hyperactive 2698] | 1.59 | –
ACATTTGTTGATACAACCATAAAATGATAATTACACCCATAAATTGATAATTATCACACCCATAAATTGATATTGCCTCTGTACGATCCAGTGATCTCCAAGACGCTGCAAGAGTCCGCACCGACAC (double strand) [Right end hyperactive 2702] | 1.71 | –
ACATTTGTTGATACAACCATAAAATGATAATTACACCCATAAATTGATAATTATCACACCCATAAATTGATATTGCCTCTGTTGGCGCCCGGCCCTCAGGCCCTGCAGTGAGTTCCAGCACCGACAC (double strand) [Right end hyperactive 2699] | 1.77 | –
ACATTTGTTGATACAACCATAAAATGATAATTACACCCATAAATTGATAATTATCACACCCATAAATTGATATTGCCTCTTTATGCAGGACGACGTACGCGTTCCATATAAACCTGTGCACCGACAC (double strand) [Right end hyperactive 2696] | 1.83 | –
ACATTTGTTGATACAACCATAAAATGATAATTACACCCATAAATTGATAATTATCACACCCATACCTTGATATTGCCTCTGATCATAGTCAGACCAACATTGCTACGACCCGTATTCGCACCGACAC (double strand) [Right end variant 1100] | – | binding signal (log2 fold vs WT) (T-RL, second replicate 1.4027): 1.3
ACATTTGTTGATACAACCATAAAATGATAATTATACCCATAAATTGATAATTATCACACCCATAAATTGATATTGCCTCTGATCATAGTCAGACCAACATTGCTACGACCCGTATTCGCACCGACAC (double strand) [Right end variant 985] | – | binding signal (log2 fold vs WT) (T-RL, second replicate -1.2264): -1.42
ACATTTGTTGATACAACCATAATATGATAATTACACCCATAAATTGATAATTATCACACCCATAAATTGATATTGCCTCTGATCATAGTCAGACCAACATTGCTACGACCCGTATTCGCACCGACAC (double strand) [Right end variant 1017] | – | binding signal (log2 fold vs WT) (T-RL, second replicate 1.4722): 1.36
ACATTTTTTGATACAACCATAAAATGATAATTACACCCATAAATTGATAATTATCACACCCATAAATTGATATTGCCTCTGATCATAGTCAGACCAACATTGCTACGACCCGTATTCGCACCGACAC (double strand) [Right end variant 1066] | – | binding signal (log2 fold vs WT) (T-RL, second replicate -1.9162): -2.48
TGTGGATACAACCATAAAACGATAATTACACCCATAAATGGATCATTATCACACCCA (double strand) [Right end ORF1b] | – | binding signal (log2 fold vs WT) (T-RL, second replicate): -2.03
TGTGGATACAACCATAAAATGATAATTACACCCATAAATGGATCATTATCACCCCCA (double strand) [Right end ORF1a] | – | binding signal (log2 fold vs WT) (T-RL integration, second replicate -1.08): -1.47
TGTGGATCCAACCATAAAATGATAATTACACCCATAAATGGATCATTATCACACCCA (double strand) [Right end ORF1c] | – | binding signal (log2 fold vs WT) (T-RL, second replicate -1.51): -2.06
TGTTGATACAACCATAAAAGGATTATTACACCCATTAATTGATAATTATCACACCCA (double strand) [Right end ORF2a] | – | binding signal (log2 fold vs WT) (T-RL, second replicate -1.82): -2.22
TGTTGATACAACCATCAAATGGTAATTACACCCATAAATTGATAATTATCACACCCA (double strand) [Right end ORF3a] | – | binding signal (log2 fold vs WT) (T-RL, second replicate -0.05): -0.64
TGTTGATACAACCATTAAATGATAATTCCACCCATAATTTGATAATTATCACACCCA (double strand) [Right end ORF3b] | – | binding signal (log2 fold vs WT) (T-RL, second replicate -0.65): -0.84
TGTTGATACAACCATTAAATGGTAATTCCACCCAAATATTGATAATTATCACACCCA (double strand) [Right end ORF3c] | – | binding signal (log2 fold vs WT) (T-RL, second replicate -1.89): -2.49
TTTTGTGTTGAAACAACCATAAAGTGATAACAACGAATCAATTAAAATCATAGGCTTAATCGAAAAACAACCATATATTGATATCTCATAAAACAACCATAAGTTGATATTTTGGTGAAAAGGATATTCCAACCTTCATAGTTTAGTAAGAA (double strand) [Left end hyperactive 4669] | 1.69 | –
TTTTGTGTTGAAACAACCATAAAGTGATAACAACGAATCAATTAAAATCATAGGCTTAATCGAAAAACAACCATATCTTGATATCGCACAAAACAACCATAAGTTGATATTTTGGTGAAAAGGATATTCCAACCTTCATAGTTTAGTAAGAA (double strand) [Left end hyperactive 4672] | 1.54 | –
TTTTGTGTTGAAACAACCATAAAGTGATAACAACGAATCAATTAAAATCATAGGCTTAATCGAAAAACAACCATATCTTGATATCGCATAAAACAACCATAAGTTGATATTTTTGTGAATAGGATATTCCAACCTTCATAGTTTAGTAAGAA (double strand) [Left end hyperactive 4670] | 1.67 | –
TTTTGTGTTGAAACAACCATAAAGTGATATTTACGAATCAATTAAAATCATAGGCTTAATCGAAAAACAACCATATCTTGATATCGCATAAAACAACCATAAGTTGATATTTTGGTGAAAAGGATATTCCAACCTTCATAGTTTAGTAAGAA (double strand) [Left end hyperactive 4667] | 2.07 | –
TTTTGTGTTGATGCAACCATAAAGTGATAACAACGAATCAATTAAAATCATAGGCTTAATCGAAAAACAACCATATCTTGATATCGCATAAAACAACCATAAGTTGATATTTTGGTGAAAAGGATATTCCAACCTTCATAGTTTAGTAAGAA (double strand) [Left end hyperactive 4671] | 1.55 | –
